The text below walks through data of patent publication US12391737B2, “Soluble NPY2 receptor agonists” (Boehringer Ingelheim International GmbH, priority 2020, dated 2025).

This assay concerns the target T1, human NPY2 receptor (NPY2R) (human, UniProt P49146).
T1 chain: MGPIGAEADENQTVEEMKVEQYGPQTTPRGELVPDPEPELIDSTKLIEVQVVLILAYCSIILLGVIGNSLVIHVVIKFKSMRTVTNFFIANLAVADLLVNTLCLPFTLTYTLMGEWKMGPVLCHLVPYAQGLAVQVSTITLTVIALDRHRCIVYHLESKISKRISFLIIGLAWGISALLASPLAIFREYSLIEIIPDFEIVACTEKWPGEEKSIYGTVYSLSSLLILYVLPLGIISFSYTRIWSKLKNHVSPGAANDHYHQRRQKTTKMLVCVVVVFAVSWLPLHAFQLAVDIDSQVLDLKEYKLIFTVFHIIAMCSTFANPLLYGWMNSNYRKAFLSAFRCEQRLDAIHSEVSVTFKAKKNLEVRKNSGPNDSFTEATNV
In words: competition.

*1 amine or outer side, *2 acyl side, *3 side chain or, on linkers, in order; H or OH if unused. Side-chain parts run from the residue outwards. The star is where a group is joined. C18 diacid = O=C(O)CCCCCCCCCCCCCCCCC(=O)*; γGlu = O=C(O)[C@H](CCC(=O)[*:2])N[*:1]; Isovaleryl = CC(C)CC(=O)*; Ahx = NCCCCCC(=O)O

B1: Compound 122 (peptide)
chain: Isovaleryl-APEK([Ahx-γGlu-C18 diacid])PEAEASPEELQRYYVSLRHYYNWLTRQRY-NH2
A word on the Ki: it is the dissociation constant of the complex between target and ligand, obtained from inhibition or displacement. Read a high Ki as weaker binding. In turn, B1 yielded an inhibition constant Ki of 2.73 nM.
